Measured values taken from US20120172295A1 (INDIANA UNIVERSITY RESEARCH AND TECHNOLOGY, published 2012).
Positions of bridges follow the written chain, without caps; N, C: chain ends. Non-standard residues stand in square brackets, D forms with d. Groups on a side chain read outwards from the residue. No end group written: not given here. *: point of attachment. PEG 40 kDa = 40 kDa polyethylene glycol attached to Cys; Stearoyl = CCCCCCCCCCCCCCCCCC(=O)*; Palmitoyl = CCCCCCCCCCCCCCCC(=O)*; Octanoyl = CCCCCCCC(=O)*; Aib = CC(C)(N)C(=O)O

B1: E16 GLP(17-29)-NH2 E24, K28 Lactam (peptide)
peptide: HSQGTFTSDYSKYLDEQAAKEFIEWLVKG-NH2
modifications: lactam 24-28; N-terminus assumed
SMILES: CC[C@H](C)[C@H](NC(=O)[C@H](Cc1ccccc1)NC(=O)[C@H](CCC(=O)O)NC(=O)[C@H](CCCCN)NC(=O)[C@H](C)NC(=O)[C@H](C)NC(=O)[C@H](CCC(N)=O)NC(=O)[C@H](CCC(=O)O)NC(=O)[C@H](CC(=O)O)NC(=O)[C@H](CC(C)C)NC(=O)[C@H](Cc1ccc(O)cc1)NC(=O)[C@H](CCCCN)NC(=O)[C@H](CO)NC(=O)[C@H](Cc1ccc(O)cc1)NC(=O)[C@H](CC(=O)O)NC(=O)[C@H](CO)NC(=O)[C@@H](NC(=O)[C@H](Cc1ccccc1)NC(=O)[C@@H](NC(=O)CNC(=O)[C@H](CCC(N)=O)NC(=O)[C@H](CO)NC(=O)[C@@H](N)Cc1c[nH]cn1)[C@@H](C)O)[C@@H](C)O)C(=O)N[C@H]1CCC(=O)NCCCC[C@@H](C(=O)NCC(N)=O)NC(=O)[C@H](C(C)C)NC(=O)[C@H](CC(C)C)NC(=O)[C@H](Cc2c[nH]c3ccccc23)NC1=O

These binders were tested against T1, glucagon receptor (UniProt P47871 26-477, limits assumed) (assay: cell-based or functional assay).
T1 sequence (P47871 26-477 limits assumed): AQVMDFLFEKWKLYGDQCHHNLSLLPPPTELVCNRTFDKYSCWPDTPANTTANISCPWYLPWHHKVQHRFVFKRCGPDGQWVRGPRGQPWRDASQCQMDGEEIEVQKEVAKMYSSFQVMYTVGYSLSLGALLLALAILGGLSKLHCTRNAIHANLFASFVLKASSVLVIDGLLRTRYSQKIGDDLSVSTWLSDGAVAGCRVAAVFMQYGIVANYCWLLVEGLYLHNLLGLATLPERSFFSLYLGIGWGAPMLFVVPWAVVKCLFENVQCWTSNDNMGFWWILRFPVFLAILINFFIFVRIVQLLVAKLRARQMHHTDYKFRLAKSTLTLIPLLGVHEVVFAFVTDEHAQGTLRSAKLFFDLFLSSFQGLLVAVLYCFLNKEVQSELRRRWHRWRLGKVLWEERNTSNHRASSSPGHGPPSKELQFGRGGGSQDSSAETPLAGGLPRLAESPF
For HSQGTFTSDYSKYLDEQAAKEFIAWLVKG-NH2 [E16 GLP(17-29)-NH2], the “cAMP induction EC50” value was 0.46 nM.
With HSQGTFTSDYSKYLDEQAAKEFIEWLVKG-NH2 [E16 GLP(17-29)-NH2 E24, K28] the “cAMP induction EC50” value was 0.23 nM.
B1 was tested, and the “cAMP induction EC50” value was 0.16 nM.

These binders were tested against T2, GLP-1 receptor (UniProt P43220 24-463, limits assumed) (assay: cell-based or functional assay).
In the case of HSQGTFTSDYSKYLDEQAAKEFIAWLVKG-NH2 [E16 GLP(17-29)-NH2], the “cAMP induction EC50” value is reported as 0.01 nM.
HSQGTFTSDYSKYLDEQAAKEFIEWLVKG-NH2 [E16 GLP(17-29)-NH2 E24, K28] was tested, and the “cAMP induction EC50” value was 0.007 nM.
For B1, the “cAMP induction EC50” value was 0.007 nM.

Molecular target: T2, GLP-1 receptor
Assay: cell-based or functional assay
Remark: another data set of the same source
Binder HSQGTFTSDK([Trp-Palmitoyl])SKYLDERRAKDFVQWLMNT-NH2 [E16 K20-glucagon-NH2 with K10-W-C16] has an EC50 of 0.05 nM.
HSQGTFTSDK(Stearoyl)SKYLDERRAKDFVQWLMNT-NH2 [E16 K20-glucagon-NH2 with K10-C18] gave an EC50 of 0.03 nM.

Molecular target: T1, glucagon receptor
Assay: cell-based or functional assay
Remark: another data set of the same source
Binder HSQGTFTSDK([Trp-Palmitoyl])SKYLDERRAKDFVC(PEG 40 kDa)WLMNT-NH2 [E16 K20-glucagon-NH2 with K10-W-C16 and C24-40K PEG (SEQ ID NO: 546)] has an EC50 of 0.52 nM.
With HSQGTFTSDK(Stearoyl)SKYLDERRAKDFVC(PEG 40 kDa)WLMNT-NH2 [E16 K20-glucagon-NH2 with K10-C18 and C24-40K PEG (SEQ ID NO: 547)] the EC50 was 0.84 nM.
HSQGTFTSDK([Trp-Stearoyl])SKYLDERRAKDFVC(PEG 40 kDa)WLMNT-NH2 [E16 K20-glucagon-NH2 with K10-W-C18 and C24-40K PEG (SEQ ID NO: 548)] gave an EC50 of 1.3 nM.

Molecular target: T2, GLP-1 receptor
Assay: cell-based or functional assay
Remark: another data set of the same source
Work on HSQGTFTSDK([Trp-Palmitoyl])SKYLDERRAKDFVC(PEG 40 kDa)WLMNT-NH2 [E16 K20-glucagon-NH2 with K10-W-C16 and C24-40K PEG (SEQ ID NO: 546)] yielded an EC50 of 0.23 nM.
HSQGTFTSDK(Stearoyl)SKYLDERRAKDFVC(PEG 40 kDa)WLMNT-NH2 [E16 K20-glucagon-NH2 with K10-C18 and C24-40K PEG (SEQ ID NO: 547)] gave an EC50 of 0.15 nM.
HSQGTFTSDK([Trp-Stearoyl])SKYLDERRAKDFVC(PEG 40 kDa)WLMNT-NH2 [E16 K20-glucagon-NH2 with K10-W-C18 and C24-40K PEG (SEQ ID NO: 548)] gave an EC50 of 1.64 nM.

Molecular target: T2, GLP-1 receptor
Assay: cell-based or functional assay
Remark: another data set of the same source
Target sequence in this assay (P43220 24-463 limits assumed): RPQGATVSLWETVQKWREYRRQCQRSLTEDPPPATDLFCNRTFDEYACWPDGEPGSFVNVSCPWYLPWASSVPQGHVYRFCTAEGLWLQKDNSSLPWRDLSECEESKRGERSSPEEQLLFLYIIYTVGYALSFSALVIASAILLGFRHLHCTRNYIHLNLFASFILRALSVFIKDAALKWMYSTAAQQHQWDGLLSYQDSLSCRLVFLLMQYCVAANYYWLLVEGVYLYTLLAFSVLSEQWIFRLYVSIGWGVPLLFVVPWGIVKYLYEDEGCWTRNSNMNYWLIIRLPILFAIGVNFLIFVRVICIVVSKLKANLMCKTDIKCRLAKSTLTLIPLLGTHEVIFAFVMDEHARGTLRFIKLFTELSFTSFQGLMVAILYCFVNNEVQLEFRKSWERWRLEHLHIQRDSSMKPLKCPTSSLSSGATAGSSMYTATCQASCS
H[Aib]QGTFTSDK(Octanoyl)SKYLDEQAAKEFIC(PEG 40 kDa)WLMNT-NH2 [C8 acylated Glucagon analog peptide (SEQ ID NO: 534)] showed an EC50 of 0.0174 nM.

Molecular target: T1, glucagon receptor
Assay: cell-based or functional assay
Remark: another data set of the same source
Work on HSQGTFTSDK([Trp-Palmitoyl])SKYLDERRAKDFVC(PEG 40 kDa)WLMNT-NH2 [E16 K20-glucagon-NH2 with K10-W-C16 and C24-40K PEG (SEQ ID NO: 546)] yielded an EC50 of 0.54 nM.
In the case of HSQGTFTSDK(Stearoyl)SKYLDERRAKDFVC(PEG 40 kDa)WLMNT-NH2 [E16 K20-glucagon-NH2 with K10-C18 and C24-40K PEG (SEQ ID NO: 547)], the EC50 is reported as 0.84 nM.
Work on HSQGTFTSDK([Trp-Stearoyl])SKYLDERRAKDFVC(PEG 40 kDa)WLMNT-NH2 [E16 K20-glucagon-NH2 with K10-W-C18 and C24-40K PEG (SEQ ID NO: 548)] yielded an EC50 of 1.29 nM.

Molecular target: T2, GLP-1 receptor
Assay: cell-based or functional assay
Remark: another data set of the same source
In the case of HSQGTFTSDK([Trp-Palmitoyl])SKYLDERRAKDFVC(PEG 40 kDa)WLMNT-NH2 [E16 K20-glucagon-NH2 with K10-W-C16 and C24-40K PEG (SEQ ID NO: 546)], the EC50 is reported as 0.23 nM.
Binder HSQGTFTSDK(Stearoyl)SKYLDERRAKDFVC(PEG 40 kDa)WLMNT-NH2 [E16 K20-glucagon-NH2 with K10-C18 and C24-40K PEG (SEQ ID NO: 547)] has an EC50 of 0.15 nM.
HSQGTFTSDK([Trp-Stearoyl])SKYLDERRAKDFVC(PEG 40 kDa)WLMNT-NH2 [E16 K20-glucagon-NH2 with K10-W-C18 and C24-40K PEG (SEQ ID NO: 548)] was tested, and the EC50 was 1.64 nM.

Molecular target: T2, GLP-1 receptor
Assay: cell-based or functional assay
Remark: another data set of the same source
HSQGTFTSDK(Stearoyl)SKYLDERRAKDFVQWLMNT-NH2 [E16 K20-glucagon-NH2 with K10-C18] showed an EC50 of 0.032 nM.

Molecular target: T2, GLP-1 receptor
Assay: cell-based or functional assay
Remark: another data set of the same source
Target sequence in this assay (P43220 24-463 limits assumed): as above
For H[Aib]QGTFTSDK(Octanoyl)SKYLDEQAAKEFIC(PEG 40 kDa)WLMNT-NH2 [C8 acylated Glucagon analog peptide (SEQ ID NO: 534)], the EC50 was 0.058 nM.
